In article PMC12408356 (Nature Microbiology, 2025):

B1: CR1-28 (antibody, V domains shown)
VH: QVQLVESGGGVVQPGRSLRLSCAASGFTFSSSAMHWVRQAPGKGLEWVAVIWSDGSNENYADSVKGRFTISRDNSKNTLYLQMSSLRAEDTAVYYCATDKTYVSGYTSTWYYFNYWGQGTLVTVS
VL: DIQMTQSPSTLSASVGDRVTITCRASQSIDNWLAWYQQKPGKAPKLLIYTASRLESGVPSRFSGSGSGTEFTLTISSLQPDDFATYYCQHRTFGQGTKVEIK
B2: CR1-10 (antibody, V domains shown)
VH: QVQLQESGPGLVKPSQTLSLTCSVSGGSIGGSSYYWSWIRHHPGKGLEWIGYINYRGITHYNAALKSRVSMSVETSQNHFSLQLTSVTAADTAVYYCARLTSDCSGGNCYQAFDYWGQGSLVSVS
VL: EIVLTQSPGTLSLSPGETATLSCRASQSVSSSYLAWYQQKPGQAPRLLIYGASGRATGIPDRFSGSGSGTDFTLTISRLEPEDFAVYYCQQYGRSGYTFGQGTKLEIK
B3: CR1-07 (antibody, V domains shown)
VH: QVQLVESGGGVVHPGRSLRLSCAASGFTFGTSIMHWVRQAPGKGMQWVAQISHDESRKFYSDSVKGRFTVSRDNSKNTLFLEMSSLRIEDTAVYYCAKDLSPPYSYAWDIFQYWGQGSLVTVS
VL: DIVMTQSPESLAVSLGERATINCKSSQSVLYSSRSDNKDYLAWYQQKPGQSPKLLIYWASTRESGVPERFTGSGSGTDFTLSISSLQAEDVAVYYCQQYYSSPPTFGGGTKVELK

Molecular target: T1, JUNV GPC MC2-TS (wild-type Junin virus glycoprotein complex) (Junin virus, MC2 strain, UniProt P26313, myristoyl on G2 | N-linked glycans | N-linked glycans)
T1 construct: copies: 3 + 3 + 3
T1 sequence (P26313 2-58, chain 1 of 3): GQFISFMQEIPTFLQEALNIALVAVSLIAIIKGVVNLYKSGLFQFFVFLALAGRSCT
T1 sequence (P26313 59-251, chain 2 of 3): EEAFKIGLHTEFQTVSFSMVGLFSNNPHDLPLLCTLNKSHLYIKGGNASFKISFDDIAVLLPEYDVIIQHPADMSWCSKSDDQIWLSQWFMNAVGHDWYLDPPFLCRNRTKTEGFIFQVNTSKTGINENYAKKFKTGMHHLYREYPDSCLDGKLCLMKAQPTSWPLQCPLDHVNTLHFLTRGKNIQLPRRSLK
T1 sequence (P26313 252-485, chain 3 of 3): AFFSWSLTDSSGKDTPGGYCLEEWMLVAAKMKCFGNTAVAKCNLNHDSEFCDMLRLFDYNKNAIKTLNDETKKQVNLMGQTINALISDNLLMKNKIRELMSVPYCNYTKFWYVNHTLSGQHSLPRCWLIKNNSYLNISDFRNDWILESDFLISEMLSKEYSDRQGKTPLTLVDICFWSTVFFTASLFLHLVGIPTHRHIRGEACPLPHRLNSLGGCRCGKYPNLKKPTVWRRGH
Test: flow cytometry on cells
Settings: one partner purified

Binder | binding result
B1 | binds
B2 | binds
B3 | binds
